Assay results: patent US12679878B2, “CRF2 receptor agonists and their use in therapy” (SANOFI, priority 2020, dated 2026)
Each block holds one molecule with its values, some of them ahead of it. Starred links: 1 amine or outer side, 2 acyl side, 3 side chain; linkers in the order of their positions; H or OH if unused. Non-standard residues stand in square brackets, D forms with d. Residues, ends and D or L forms follow the SMILES beside them. Groups on a side chain read outwards from the residue. No end group written: not given here. *: point of attachment. C18 diacid = O=C(O)CCCCCCCCCCCCCCCCC(=O)*; γGlu = O=C(O)[C@H](CCC(=O)[*:2])N[*:1]; Palmitoyl = CCCCCCCCCCCCCCCC(=O)*; AEEA = NCCOCCOCC(=O)O; Aib = CC(C)(N)C(=O)O

Columns and labels:
human CRF2α receptor = biological target: T1, human CRF2α receptor (Homo sapiens, UniProt Q13324); assay: cAMP agonism at human CRF2 α receptor in TeloHEAC cells (Example 7); format: cell-based; details: cAMP HTRF, TeloHEAC cells stably expressing human CRF2 α, 0% HSA; read-out: EC50 [nM], 0% HSA
T1 construct: expressed in transfected cells; host or cells: TeloHEAC
T1 sequence (Q13324 1-411): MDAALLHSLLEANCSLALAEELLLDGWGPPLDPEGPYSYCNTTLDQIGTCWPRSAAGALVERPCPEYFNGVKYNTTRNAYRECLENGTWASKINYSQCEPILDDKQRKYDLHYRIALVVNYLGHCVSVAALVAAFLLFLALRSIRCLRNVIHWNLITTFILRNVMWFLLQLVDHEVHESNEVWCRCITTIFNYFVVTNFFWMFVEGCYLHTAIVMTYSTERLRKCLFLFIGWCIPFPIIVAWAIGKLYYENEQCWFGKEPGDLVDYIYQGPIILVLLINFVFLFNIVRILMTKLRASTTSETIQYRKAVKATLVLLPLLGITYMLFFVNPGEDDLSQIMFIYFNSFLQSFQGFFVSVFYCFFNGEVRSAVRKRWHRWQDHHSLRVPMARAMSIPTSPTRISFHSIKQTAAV
Method: Agonism of compounds for human corticotropin-releasing factor 2α (CRF2 α receptor) was determined by functional assays measuring CAMP response of a TeloHEAC cell line stably expressing human CRF2 α receptor.
Cells were grown in a T175 culture flask placed at 37° C. to near confluence in medium (DMEM/10% FBS) and collected in 2 ml vials in cell culture medium containing 10% DMSO in a concentration of 10-50 million cells/ml. Each vial contained 1.8 ml cells. The vials were slowly frozen to −80° C. in isopropanol and then transferred in liquid nitrogen for storage. Prior to use, frozen cells were thawed quickly at 37° C. and washed (5 min at 900 rpm) with 20 ml cell buffer (1×HBSS; 20 mM HEPES; 0% or 0.1% HSA). Cells were resuspended in assay buffer (cell buffer plus 2 mM IBMX) and adjusted to a cell density of 1 million cells/ml. For measurement, 5 μl cells (final […]) and 5 μL of test compound were added to a 384-well plate, followed by incubation for 30 minutes at room temperature.
The CAMP content of cells was determined using a kit from Cisbio Corp. (cat. no. 62AM4PEC) based on HTRF (Homogenous Time Resolved Fluorescence). After addition of HTRF reagents diluted in lysis buffer (kit components), the plates were incubated for 1 h, followed by measurement of the fluorescence ratio at 665/620 nm. The percent activity value (E %) was calculated by setting 1000 nM of urocortin 2 (UCN2) as 100%. The in vitro potency of the compounds was quantified by determining the concentrations that caused 50% activation of maximal response (EC50).

[1] = biological target: human corticotropin-releasing factor 2α (CRF2 α receptor) (human), Q13324; assay: cell-based or functional assay

B1: SEQ ID NO: 82 (peptide)
peptide: IVLSLDVPTKLK([AEEA-AEEA-γGlu-C18 diacid])QILLKQERQKK[Aib]REQAETNVRILERV-NH2
modifications: N-terminus assumed
SMILES: CC[C@H](C)[C@H](N)C(=O)N[C@H](C(=O)N[C@@H](CC(C)C)C(=O)N[C@@H](CO)C(=O)N[C@@H](CC(C)C)C(=O)N[C@@H](CC(=O)O)C(=O)N[C@H](C(=O)N1CCC[C@H]1C(=O)N[C@H](C(=O)N[C@@H](CCCCN)C(=O)N[C@@H](CC(C)C)C(=O)N[C@@H](CCCCNC(=O)COCCOCCNC(=O)COCCOCCNC(=O)CC[C@H](NC(=O)CCCCCCCCCCCCCCCCC(=O)O)C(=O)O)C(=O)N[C@@H](CCC(N)=O)C(=O)N[C@H](C(=O)N[C@@H](CC(C)C)C(=O)N[C@@H](CC(C)C)C(=O)N[C@@H](CCCCN)C(=O)N[C@@H](CCC(N)=O)C(=O)N[C@@H](CCC(=O)O)C(=O)N[C@@H](CCCNC(=N)N)C(=O)N[C@@H](CCC(N)=O)C(=O)N[C@@H](CCCCN)C(=O)N[C@@H](CCCCN)C(=O)NC(C)(C)C(=O)N[C@@H](CCCNC(=N)N)C(=O)N[C@@H](CCC(=O)O)C(=O)N[C@@H](CCC(N)=O)C(=O)N[C@@H](C)C(=O)N[C@@H](CCC(=O)O)C(=O)N[C@H](C(=O)N[C@@H](CC(N)=O)C(=O)N[C@H](C(=O)N[C@@H](CCCNC(=N)N)C(=O)N[C@H](C(=O)N[C@@H](CC(C)C)C(=O)N[C@@H](CCC(=O)O)C(=O)N[C@@H](CCCNC(=N)N)C(=O)N[C@H](C(N)=O)C(C)C)[C@@H](C)CC)C(C)C)[C@@H](C)O)[C@@H](C)CC)[C@@H](C)O)C(C)C)C(C)C
EC50 [nM], 0% HSA [1]: 10.1 nM

B2: SEQ ID NO: 84 (peptide)
peptide: IVLSLDVPIKLK([AEEA-AEEA-γGlu-C18 diacid])QKLLEQEKQKKQREQAETNKQILAQV-NH2
modifications: N-terminus assumed
SMILES: CC[C@H](C)[C@H](N)C(=O)N[C@H](C(=O)N[C@@H](CC(C)C)C(=O)N[C@@H](CO)C(=O)N[C@@H](CC(C)C)C(=O)N[C@@H](CC(=O)O)C(=O)N[C@H](C(=O)N1CCC[C@H]1C(=O)N[C@H](C(=O)N[C@@H](CCCCN)C(=O)N[C@@H](CC(C)C)C(=O)N[C@@H](CCCCNC(=O)COCCOCCNC(=O)COCCOCCNC(=O)CC[C@H](NC(=O)CCCCCCCCCCCCCCCCC(=O)O)C(=O)O)C(=O)N[C@@H](CCC(N)=O)C(=O)N[C@@H](CCCCN)C(=O)N[C@@H](CC(C)C)C(=O)N[C@@H](CC(C)C)C(=O)N[C@@H](CCC(=O)O)C(=O)N[C@@H](CCC(N)=O)C(=O)N[C@@H](CCC(=O)O)C(=O)N[C@@H](CCCCN)C(=O)N[C@@H](CCC(N)=O)C(=O)N[C@@H](CCCCN)C(=O)N[C@@H](CCCCN)C(=O)N[C@@H](CCC(N)=O)C(=O)N[C@@H](CCCNC(=N)N)C(=O)N[C@@H](CCC(=O)O)C(=O)N[C@@H](CCC(N)=O)C(=O)N[C@@H](C)C(=O)N[C@@H](CCC(=O)O)C(=O)N[C@H](C(=O)N[C@@H](CC(N)=O)C(=O)N[C@@H](CCCCN)C(=O)N[C@@H](CCC(N)=O)C(=O)N[C@H](C(=O)N[C@@H](CC(C)C)C(=O)N[C@@H](C)C(=O)N[C@@H](CCC(N)=O)C(=O)N[C@H](C(N)=O)C(C)C)[C@@H](C)CC)[C@@H](C)O)[C@@H](C)CC)C(C)C)C(C)C
EC50 [nM], 0% HSA [1]: 1.85 nM
EC50 [nM], 0.1% HSA [1]: 61.7 nM

B3: SEQ ID NO: 83 (peptide)
peptide: IVLSLD[dV]PIGLK([AEEA-AEEA-γGlu-C18 diacid])QILLKQERQKK[Aib]REQAETNKRILERV-NH2
modifications: N-terminus assumed
SMILES: CC[C@H](C)[C@H](N)C(=O)N[C@H](C(=O)N[C@@H](CC(C)C)C(=O)N[C@@H](CO)C(=O)N[C@@H](CC(C)C)C(=O)N[C@@H](CC(=O)O)C(=O)N[C@@H](C(=O)N1CCC[C@H]1C(=O)N[C@H](C(=O)NCC(=O)N[C@@H](CC(C)C)C(=O)N[C@@H](CCCCNC(=O)COCCOCCNC(=O)COCCOCCNC(=O)CC[C@H](NC(=O)CCCCCCCCCCCCCCCCC(=O)O)C(=O)O)C(=O)N[C@@H](CCC(N)=O)C(=O)N[C@H](C(=O)N[C@@H](CC(C)C)C(=O)N[C@@H](CC(C)C)C(=O)N[C@@H](CCCCN)C(=O)N[C@@H](CCC(N)=O)C(=O)N[C@@H](CCC(=O)O)C(=O)N[C@@H](CCCNC(=N)N)C(=O)N[C@@H](CCC(N)=O)C(=O)N[C@@H](CCCCN)C(=O)N[C@@H](CCCCN)C(=O)NC(C)(C)C(=O)N[C@@H](CCCNC(=N)N)C(=O)N[C@@H](CCC(=O)O)C(=O)N[C@@H](CCC(N)=O)C(=O)N[C@@H](C)C(=O)N[C@@H](CCC(=O)O)C(=O)N[C@H](C(=O)N[C@@H](CC(N)=O)C(=O)N[C@@H](CCCCN)C(=O)N[C@@H](CCCNC(=N)N)C(=O)N[C@H](C(=O)N[C@@H](CC(C)C)C(=O)N[C@@H](CCC(=O)O)C(=O)N[C@@H](CCCNC(=N)N)C(=O)N[C@H](C(N)=O)C(C)C)[C@@H](C)CC)[C@@H](C)O)[C@@H](C)CC)[C@@H](C)CC)C(C)C)C(C)C
EC50 [nM], 0% HSA [1]: 0.07 nM
EC50 [nM], 0.1% HSA [1]: 2.99 nM

The remaining lines, values ahead:

EC50 (human CRF2α receptor): 0.01 nM
Molecule: CCCCCCCCCCCCCCCC(=O)N[C@@H](CCC(=O)NCCCC[C@H](NC(=O)[C@H](CC(C)C)NC(=O)CNC(=O)[C@@H](NC(=O)[C@@H]1CCCN1C(=O)[C@@H](NC(=O)[C@H](CC(=O)O)NC(=O)[C@H](CC(C)C)NC(=O)[C@H](CO)NC(=O)[C@H](CC(C)C)NC(=O)[C@@H](NC(=O)[C@@H](N)[C@@H](C)CC)C(C)C)C(C)C)[C@@H](C)CC)C(=O)N[C@@H](CCC(N)=O)C(=O)N[C@H](C(=O)N[C@@H](CC(C)C)C(=O)N[C@@H](CC(C)C)C(=O)N[C@@H](CCC(=O)O)C(=O)N[C@@H](CCC(N)=O)C(=O)N[C@@H](CCC(=O)O)C(=O)N[C@@H](CCCCN)C(=O)N[C@@H](CCC(N)=O)C(=O)N[C@@H](CCC(=O)O)C(=O)N[C@@H](CCCCN)C(=O)N[C@@H](CCC(=O)O)C(=O)N[C@@H](CCCCN)C(=O)N[C@@H](CCC(N)=O)C(=O)N[C@@H](CCC(N)=O)C(=O)N[C@@H](C)C(=O)N[C@@H](CCC(=O)O)C(=O)N[C@H](C(=O)N[C@@H](CC(N)=O)C(=O)N[C@@H](C)C(=O)N[C@@H](CCC(N)=O)C(=O)N[C@H](C(=O)N[C@@H](CC(C)C)C(=O)N[C@@H](C)C(=O)N[C@@H](CCC(N)=O)C(=O)N[C@H](C(N)=O)C(C)C)[C@@H](C)CC)[C@@H](C)O)[C@@H](C)CC)C(=O)O [compound 1] (H-IVLSLDVPIGLK([γGlu-Palmitoyl])QILLEQEKQEKEKQQAETNAQILAQV-NH2; N-terminus assumed)

EC50 (human CRF2α receptor): 0.01 nM
Molecule: CCCCCCCCCCCCCCCC(=O)N[C@@H](CCC(=O)NCCCC[C@H](NC(=O)[C@H](CC(C)C)NC(=O)[C@H](CCCCN)NC(=O)[C@@H](NC(=O)[C@@H]1CCCN1C(=O)[C@H](NC(=O)[C@H](CC(=O)O)NC(=O)[C@H](CC(C)C)NC(=O)[C@H](CO)NC(=O)[C@H](CC(C)C)NC(=O)[C@@H](NC(=O)[C@@H](N)[C@@H](C)CC)C(C)C)C(C)C)[C@@H](C)O)C(=O)N[C@@H](CCC(N)=O)C(=O)N[C@@H](CCCCN)C(=O)N[C@@H](CC(C)C)C(=O)N[C@@H](CC(C)C)C(=O)N[C@@H](CCCCN)C(=O)N[C@@H](CCC(N)=O)C(=O)N[C@@H](CCC(=O)O)C(=O)N[C@@H](CCCNC(=N)N)C(=O)N[C@@H](CCC(N)=O)C(=O)N[C@@H](CCCNC(=N)N)C(=O)N[C@@H](CCCCN)C(=O)N[C@@H](CCC(=O)O)C(=O)N[C@@H](CCCNC(=N)N)C(=O)N[C@@H](CCC(=O)O)C(=O)N[C@@H](CCC(N)=O)C(=O)N[C@@H](C)C(=O)N[C@@H](CCC(=O)O)C(=O)N[C@@H](CCCCN)C(=O)N[C@@H](CC(N)=O)C(=O)NC(C)(C)C(=O)N[C@@H](CCCNC(=N)N)C(=O)N[C@H](C(=O)N[C@@H](CC(C)C)C(=O)N[C@@H](CCC(=O)O)C(=O)N[C@@H](CCCNC(=N)N)C(=O)N[C@H](C(N)=O)C(C)C)[C@@H](C)CC)C(=O)O [compound 31] (H-IVLSLD[dV]PTKLK([γGlu-Palmitoyl])QKLLKQERQRKEREQAEKN[Aib]RILERV-NH2; N-terminus assumed)
